Test results as given in PMC6542941.
Positions count from the first letter of the chain named.

Experiments:
[1] = target: T1, human acid-sensing ion channel 1a variant hASIC1a-D212 (human) (UniProt P78348)
T1 sequence: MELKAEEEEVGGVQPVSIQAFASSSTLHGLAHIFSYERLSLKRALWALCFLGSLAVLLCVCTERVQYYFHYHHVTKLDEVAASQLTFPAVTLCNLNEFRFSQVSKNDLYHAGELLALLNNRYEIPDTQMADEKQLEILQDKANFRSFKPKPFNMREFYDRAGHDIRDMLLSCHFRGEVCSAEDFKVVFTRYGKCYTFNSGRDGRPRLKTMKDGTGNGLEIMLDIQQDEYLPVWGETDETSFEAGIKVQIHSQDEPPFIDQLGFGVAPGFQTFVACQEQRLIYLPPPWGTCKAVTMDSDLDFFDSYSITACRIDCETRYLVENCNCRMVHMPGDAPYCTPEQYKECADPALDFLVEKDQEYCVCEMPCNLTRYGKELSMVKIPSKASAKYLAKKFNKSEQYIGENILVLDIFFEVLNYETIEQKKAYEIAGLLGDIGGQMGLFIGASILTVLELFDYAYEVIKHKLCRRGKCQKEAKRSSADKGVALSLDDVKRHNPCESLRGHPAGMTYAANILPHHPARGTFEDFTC

[2] = target: T2, human acid-sensing ion channel 1a wild type hASIC1a-G212 (human) (UniProt P78348)
T2 sequence: T1 sequence with D212G

[3] = target: human ASIC2a (human) (UniProt Q16515)
Chain of UniProt Q16515 (Q16515 whole entry): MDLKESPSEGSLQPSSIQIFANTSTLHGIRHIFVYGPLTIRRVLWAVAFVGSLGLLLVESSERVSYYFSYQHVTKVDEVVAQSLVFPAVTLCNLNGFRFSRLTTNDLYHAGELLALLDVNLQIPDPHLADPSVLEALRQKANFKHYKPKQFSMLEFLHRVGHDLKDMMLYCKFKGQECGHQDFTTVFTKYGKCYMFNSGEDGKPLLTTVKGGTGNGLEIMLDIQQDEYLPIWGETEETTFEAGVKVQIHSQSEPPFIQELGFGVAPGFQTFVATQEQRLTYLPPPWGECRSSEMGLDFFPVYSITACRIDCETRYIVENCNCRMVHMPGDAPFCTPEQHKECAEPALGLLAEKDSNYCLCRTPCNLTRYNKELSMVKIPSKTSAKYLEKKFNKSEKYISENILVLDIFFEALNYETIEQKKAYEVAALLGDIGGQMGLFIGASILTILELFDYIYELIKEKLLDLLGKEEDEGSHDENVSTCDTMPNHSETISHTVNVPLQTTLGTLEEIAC

## Psalmotoxin1 (from UniProt P60514 1-40) (peptide)
[1]
  IC50 of inhibition of the pH5.0-induced current, whole-cell patch-clamp of CHO cells; PcTx1 pre-applied 60 s in the conditioning pH 7.4 solution: 1.19 nM
[2]
  IC50 of inhibition of the pH5.0-induced current, whole-cell patch-clamp of CHO cells; PcTx1 pre-applied 60 s in the conditioning pH 7.4 solution: 1.83 nM

B1: Mambalgin1 (peptide)
chain: LKCYQHGKVVTCHRDMKFCYHNTGMPFRNLKLILQGCSSSCSETENNKCCSTDRCNK
[1]
  IC50 of inhibition of the pH5.0-induced current, whole-cell patch-clamp of CHO cells; Mambalgin1 pre-applied 60 s in the conditioning pH 7.4 solution: 21.7 nM
[2]
  IC50 of inhibition of the pH5.0-induced current, whole-cell patch-clamp of CHO cells; Mambalgin1 pre-applied 60 s in the conditioning pH 7.4 solution: 10.5 nM

B2: human acid-sensing ion channel 1a variant hASIC1a-D212 (receptor)
chain: T1 sequence
[3]
  IpH5.8/IpH4.0 current ratio of co-transfected CHO cells, whole-cell patch-clamp: 0.43

B3: human acid-sensing ion channel 1a wild type hASIC1a-G212 (receptor)
chain: T1 sequence with D212G
[3]
  IpH5.8/IpH4.0 current ratio of co-transfected CHO cells, whole-cell patch-clamp: 0.41
